Values of other authors in publication PMC4353500.

Key:
[1] = target: Cavβ4b (UniProt D4A055)
[2] = target: Cavβ2a (UniProt Q08289)
Chain of Cavβ2a (Q08289 whole entry): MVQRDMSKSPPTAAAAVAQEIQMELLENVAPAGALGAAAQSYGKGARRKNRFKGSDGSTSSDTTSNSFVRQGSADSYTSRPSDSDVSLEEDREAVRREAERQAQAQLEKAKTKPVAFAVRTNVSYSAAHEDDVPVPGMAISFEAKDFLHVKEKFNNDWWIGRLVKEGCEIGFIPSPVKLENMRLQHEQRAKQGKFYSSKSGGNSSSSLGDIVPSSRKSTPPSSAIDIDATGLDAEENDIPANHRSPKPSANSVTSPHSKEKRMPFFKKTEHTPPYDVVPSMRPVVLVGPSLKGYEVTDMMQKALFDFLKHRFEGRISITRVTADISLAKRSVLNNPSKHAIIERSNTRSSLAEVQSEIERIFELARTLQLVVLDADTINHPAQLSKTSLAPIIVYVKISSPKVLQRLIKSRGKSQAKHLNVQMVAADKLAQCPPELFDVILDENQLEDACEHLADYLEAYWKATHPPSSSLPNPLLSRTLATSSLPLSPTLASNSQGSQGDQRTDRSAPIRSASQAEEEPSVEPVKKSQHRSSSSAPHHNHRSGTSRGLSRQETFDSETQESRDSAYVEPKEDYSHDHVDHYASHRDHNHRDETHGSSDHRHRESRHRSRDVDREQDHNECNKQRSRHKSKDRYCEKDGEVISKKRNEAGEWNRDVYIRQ

Substance: RIM1 CTD (from UniProt Q99NE5)
- Kd [1]: 35 nM
- Kd [2]: 35 nM
